# Patent US20240377408A1 (ENCODIA, published 2024)
# Ends that are not written are not given here. * marks the point of attachment. Benzoyl(4-SO2NH2) = NS(=O)(=O)c1ccc(C(=O)*)cc1; M65 = not defined here; M67 = not defined here; M75 = not defined here; M76 = not defined here; M88 = not defined here
# Target: T1, human carbonic anhydrase 2 (wild-type hCAII) (Homo sapiens, UniProt P00918 4-259)
# Test: cell-based or functional assay
row,"NTM-AAEIR IC50 (µM), colorimetric IC50 assay (pNPA hydrolysis by wild-type hCAII) [µM]",Binder
1,0.073,M67-AAEIR (reading uncertain; also: printed as M67-AAEIR) [M67-AAEIR]
2,0.515,M65-AAEIR (reading uncertain; also: printed as M65-AAEIR) [M65-AAEIR]
3,0.067,M75-AAEIR (reading uncertain; also: printed as M75-AAEIR) [M75-AAEIR]
4,0.095,M88-AAEIR (reading uncertain; also: printed as M88-AAEIR) [M88-AAEIR]
5,0.077,M76-AAEIR (reading uncertain; also: printed as M76-AAEIR) [M76-AAEIR]

# Target: T1, human carbonic anhydrase 2 (wild-type …)
# Test: cell-based or functional assay
# Remark: another data set of the same source
row,Binder,"IC50 (µM), hCAII functional assay (p-nitrophenyl acetate hydrolysis) [µM]"
1,{Benzoyl(4-SO2NH2)}-AAAAE-NH2 (SMILES C[C@H](NC(=O)c1ccc(S(N)(=O)=O)cc1)C(=O)N[C@@H](C)C(=O)N[C@@H](C)C(=O)N[C@@H](C)C(=O)N[C@@H](CCC(=O)O)C(N)=O) [(SAB)AAAAE],0.0484
2,{Benzoyl(4-SO2NH2)}-HAAAE-NH2 (SMILES C[C@H](NC(=O)[C@H](C)NC(=O)[C@H](Cc1c[nH]cn1)NC(=O)c1ccc(S(N)(=O)=O)cc1)C(=O)N[C@@H](C)C(=O)N[C@@H](CCC(=O)O)C(N)=O) [(SAB)HAAAE],0.148
3,{Benzoyl(4-SO2NH2)}-FAAAE-NH2 (SMILES C[C@H](NC(=O)[C@H](C)NC(=O)[C@H](Cc1ccccc1)NC(=O)c1ccc(S(N)(=O)=O)cc1)C(=O)N[C@@H](C)C(=O)N[C@@H](CCC(=O)O)C(N)=O) [(SAB)FAAAE],0.045
4,{Benzoyl(4-SO2NH2)}-AFAAE-NH2 (SMILES C[C@H](NC(=O)c1ccc(S(N)(=O)=O)cc1)C(=O)N[C@@H](Cc1ccccc1)C(=O)N[C@@H](C)C(=O)N[C@@H](C)C(=O)N[C@@H](CCC(=O)O)C(N)=O) [(SAB)AFAAE],0.183

# Continued, values first:
row,"IC50 (µM), hCAII functional assay (p-nitrophenyl acetate hydrolysis) [µM]",Binder
1,0.0284,{Benzoyl(4-SO2NH2)}-LAAAE-NH2 (SMILES CC(C)C[C@H](NC(=O)c1ccc(S(N)(=O)=O)cc1)C(=O)N[C@@H](C)C(=O)N[C@@H](C)C(=O)N[C@@H](C)C(=O)N[C@@H](CCC(=O)O)C(N)=O) [(SAB)LAAAE]
2,0.153,{Benzoyl(4-SO2NH2)}-SAAAE-NH2 (SMILES C[C@H](NC(=O)[C@H](C)NC(=O)[C@H](CO)NC(=O)c1ccc(S(N)(=O)=O)cc1)C(=O)N[C@@H](C)C(=O)N[C@@H](CCC(=O)O)C(N)=O) [(SAB)SAAAE]
3,0.0993,{Benzoyl(4-SO2NH2)}-EAAAE-NH2 (SMILES C[C@H](NC(=O)[C@H](C)NC(=O)[C@H](CCC(=O)O)NC(=O)c1ccc(S(N)(=O)=O)cc1)C(=O)N[C@@H](C)C(=O)N[C@@H](CCC(=O)O)C(N)=O) [(SAB)EAAAE]
